{
  "source": "paper PMC3983030",
  "about": "“Ras GTPase-Like Protein MglA, a Controller of Bacterial Social-Motility in Myxobacteria, Has Evolved to Control Bacterial Predation by Bdellovibrio” (PLoS Genetics, 2014)",
  "target": "T1, His6-tagged Bd2492 (Bd2492-His6) expressed in E. coli from plasmid pD2492N/3734 (Bdellovibrio bacteriovorus HD100, UniProt Q6MKB3 1-353)",
  "T1 construct": "Bd2492, 353 amino acid TPR protein of Bdellovibrio bacteriovorus HD100; The label Bd2492-His6 hints at a C-terminal tag and the plasmid name pD2492N at an N-terminal one; also called TPRBd; source: E. coli, heterologously co-expressed with MglA from plasmid pD2492N/3734",
  "T1 sequence (looked up)": "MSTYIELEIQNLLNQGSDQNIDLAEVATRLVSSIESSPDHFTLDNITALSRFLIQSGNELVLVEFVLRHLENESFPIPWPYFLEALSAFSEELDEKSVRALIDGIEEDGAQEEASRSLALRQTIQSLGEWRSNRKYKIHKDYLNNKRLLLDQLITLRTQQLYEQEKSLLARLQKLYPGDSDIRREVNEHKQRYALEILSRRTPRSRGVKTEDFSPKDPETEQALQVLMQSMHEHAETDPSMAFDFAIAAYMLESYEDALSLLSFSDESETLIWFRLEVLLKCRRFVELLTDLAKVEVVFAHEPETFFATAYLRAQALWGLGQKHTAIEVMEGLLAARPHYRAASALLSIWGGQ",
  "test": "SEC; gel filtration and SDS-PAGE of purified MglA and Bd2492-His6; data not shown",
  "conditions": "both partners purified",
  "data": [
    {"binder": "MglA (Bd3734) co-expressed in E. coli from plasmid pD2492N/3734 (natural protein, Bdellovibrio bacteriovorus HD100, UniProt Q6MH29 1-197, looked up, MglA (Bd3734) of Bdellovibrio bacteriovorus HD100; No tag is named on MglA in this construct; source: E. coli, heterologously co-expressed with Bd2492-His6 from plasmid pD2492N/3734) MSFINYNAKEIHCKVVYYGPSLGGKTTNIQWVYQKTAEDQKSKLVALNTDIERTLFFDFLPLNVGDIRGFKTRFHLYTVPGQVVYDASRKLILKGLDGVIFVADSQIERMDENLESLRNLERNLEQQGYDIREIPLIMQYNKRDLPNVASLAELRSALNPYNAPEIEGCASEGRGVFESLKTVSKSIINVLKGGTTL", "values": [
      {"measurement": "stoichiometry N", "result": 1}
    ]}
  ]
}
